Source: US20220125892A1

Target: mannose-6-phosphate receptor on human neuroblastoma cells (SH-SY5Y) (human)
Assay: cell-based or functional assay

KUPTAKE, net M6PR mediated uptake by SH-SY5Y human neuroblastoma cells (4MUbetaGlc activity in lysates, hyperbolic fit): 1.9 nM
Substance: OxyGCase (uncapped and demannosylated recombinant human glucocerebrosidase variant produced in Yarrowia lipolytica) (enzyme)
